Experimental data published in patent publication US20030028002A1, “Cyclin D binding factor, and uses thereof” (published 2003).

Columns and labels:
Ets1 full length = target: T1, Ets1 full length (UniProt P14921 P14921:1-441); experiment: EMSA; supershifted by Ets1 antiserum
T1 sequence: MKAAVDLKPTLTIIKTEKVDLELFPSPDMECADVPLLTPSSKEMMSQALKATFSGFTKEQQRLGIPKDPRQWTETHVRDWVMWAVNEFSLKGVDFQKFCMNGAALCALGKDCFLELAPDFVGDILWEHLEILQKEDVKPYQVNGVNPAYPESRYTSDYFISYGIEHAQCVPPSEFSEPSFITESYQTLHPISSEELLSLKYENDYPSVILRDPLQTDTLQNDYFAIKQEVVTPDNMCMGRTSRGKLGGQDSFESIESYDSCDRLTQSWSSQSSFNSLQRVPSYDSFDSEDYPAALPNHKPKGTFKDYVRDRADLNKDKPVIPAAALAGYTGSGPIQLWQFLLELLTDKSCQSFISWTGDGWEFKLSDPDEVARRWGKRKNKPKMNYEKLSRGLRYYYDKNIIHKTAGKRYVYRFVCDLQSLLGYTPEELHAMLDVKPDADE
Method: (§1) Electrophoretic mobility shift assay (EMSA). Recombinant DMP1 protein was prepared in Sf9 cells [Hirai and Sherr, Mol. Cell. Biol. 16:6457-6467 (1996)]. Purified bacterial proteins representing the Ets1 DNA binding domain or full-length Ets1 [Inoue, et al., J. Biol. Chem. 273:29188-29194 (1998)] were used. EMSAs were performed [Inoue and Sherr, Mol. Cell. Biol. 18:1590-1600 (1998)] using either a 281-bp genomic fragment (−225 to +56) or double-stranded oligonucleotides containing the DMP1/Ets site obtained by annealing oligonucleotide 5′-[…]-3′ (sense strand SEQ ID NO:41); DMP1/Ets consensus sequence underlined) with a complementary antisense strand. For competition experiments, a 200-fold excess of unlabelled oligonucleotides was added to reaction mixtures before the probe. To verify the identity of the proteins in shifted complexes, reaction mixtures were incubated with control nonimmune rabbit serum (NRS), serum AF [Hirai and Sherr, Mol. Cell. Biol. 16:6457-6467 (1996)] and M-10 (both to DMP1 carboxylterminal epitopes), S-19 (DMP1 N-terminus), or C-20 (Ets1 C-terminus) before electrophoresis. M-10, S-19, and C-20 were from Santa Cruz Biotechnology.

Ets1 DNA-binding domain = target: T2, Ets1 DNA-binding domain (UniProt P14921 P14921:335-415); experiment: EMSA
T2 sequence: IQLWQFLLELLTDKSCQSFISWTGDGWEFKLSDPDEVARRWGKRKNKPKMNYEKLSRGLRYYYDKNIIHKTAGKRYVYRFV
Method: as §1

B1: ARF DMP1/Ets site oligo 23 bp (dsDNA)
DNA 1: AATTGGGACCCCGGATGCGGCAG
DNA 2: CTGCCGCATCCGGGGTCCCAATT
Ets1 full length
  binding result: binds
Ets1 DNA-binding domain
  binding result: binds
